The values that follow come from the supplement of paper PMC10899765.

Common to all, as to details: 20 nM; 72 h
Data set [1] has as its system MCF10A. Kind of data set: percent viability (nuclei count relative to siNT); higher = more viable cells. Here is the method:
(§1)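 After 72 h, cells were fixed and stained with Hoechst and anti-fibrillarin, and nucleoli per nucleus were counted with CellProfiler. Values are plate-adjusted percent effect for the one-nucleolus and 5+ nucleoli phenotypes, normalised to siNT (0%) and to the positive controls siNOL11 or siKIF11 (100%), as the mean of biological triplicates. Percent viability is the nuclei count relative to siNT.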

In data set [2] the test system is MCF10A. Kind of data set: 5+ nucleoli phenotype percent effect (relative to siNT 0% and siKIF11 100%); higher = more cells with five or more nucleoli. Here is the method: as §1
Data set [3] deals with MCF10A. Kind of data set: one-nucleolus phenotype percent effect (relative to siNT 0% and siNOL11 100%); higher = more cells with one nucleolus (ribosome biogenesis inhibition). As for the experimental part:
as §1

On to “AUGUAGGGCUAAAAGCCAUGGG [hsa-miR-135b-3p]”, for which, in the data set with MCF10A [1], the percent viability worked out at 14.3%. The “5+ nucleoli phenotype percent effect” value in the data set on MCF10A [2] was determined as 10.5%. For the same sequence, the “one-nucleolus phenotype percent effect” value in the data set with MCF10A [3] was found to be 6.54%.
In the case of CAGUUGGGUCUAGGGGUCAGGA [hsa-miR-4259], the percent viability with MCF10A [1] stood at 16%. Moreover, in the data set on MCF10A [2], the “5+ nucleoli phenotype percent effect” value was -30.7%. Moreover, the “one-nucleolus phenotype percent effect” value with MCF10A [3] came out at 31.8%.
The corresponding values for “CAACCUCGACGAUCUCCUCAGC [hsa-miR-3150a-5p]” are 171%, 22.1% and -25.7%.
Taken in the same sequence, the figures for ACUGGACUUGGAGGCAGAA [hsa-miR-378b] were 36.5%, -14.2% and 9.39%.
The corresponding values for “UCUGACAUCAGUGAUUCUCCUG [hsa-miR-6719-3p]” are 115%, 20.2% and -5.44%.
Consider “UCGGCUCUCUCCCUCACCCUAG [hsa-miR-6741-3p]”, for which, in the data set with MCF10A [1], the percent viability worked out at 33.2%. Further, in the data set on MCF10A [2], the “5+ nucleoli phenotype percent effect” value is -4.11%. Also, the “one-nucleolus phenotype percent effect” value with MCF10A [3] is 9.37%.
For “AAUUCUGUAAAGGAAGAAGAGG [hsa-miR-4778-5p]”, the percent viability with MCF10A [1] came out at 74.3%. Besides, in the data set on MCF10A [2], the “5+ nucleoli phenotype percent effect” value stood at 32.3%. The “one-nucleolus phenotype percent effect” value in the data set on MCF10A [3] is -8.03%.
As for UCAGCUACUACCUCUAUUAGG [hsa-miR-5690], the percent viability in the data set on MCF10A [1] is 105%. In addition, the “5+ nucleoli phenotype percent effect” value in the data set with MCF10A [2] stood at 15.5%. For the same sequence, the “one-nucleolus phenotype percent effect” value in the data set on MCF10A [3] was -20.3%.
As for CUGCAAAGGGAAGCCCUUUC [hsa-miR-518a-5p], in the data set with MCF10A [1], the percent viability worked out at 32.4%. The “5+ nucleoli phenotype percent effect” value in the data set with MCF10A [2] is -45.8%. In addition, the “one-nucleolus phenotype percent effect” value in the data set with MCF10A [3] was determined as 60.3%.
Taken in the same sequence, the figures for “AAAAACCACAAUUACUUUUGCACCA [hsa-miR-548aa]” were 16.1%, -30.9% and 51.2%.
With “CAGGUAGAUAUUUGAUAGGCAU [hsa-miR-3927-3p]”, the percent viability in the data set with MCF10A [1] came to 24.8%. For the same sequence, in the data set on MCF10A [2], the “5+ nucleoli phenotype percent effect” value came to 29.3%. Further, the “one-nucleolus phenotype percent effect” value with MCF10A [3] was -16.5%.
Consider “CUAUACAAUCUAUUGCCUUCCC [hsa-let-7f-1-3p]”, for which, in the data set on MCF10A [1], the percent viability worked out at 39.2%. The “5+ nucleoli phenotype percent effect” value in the data set on MCF10A [2] is -25%. Besides, the “one-nucleolus phenotype percent effect” value in the data set on MCF10A [3] was -6.49%.
Taken in the same sequence, the figures for UUGUCUGCUGAGUUUCC [hsa-miR-4288] were 31.9%, -15.9% and 27.6%.
For AGUUAAUGAAUCCUGGAAAGU [hsa-miR-569], the percent viability with MCF10A [1] stood at 90.6%. In addition, in the data set with MCF10A [2], the “5+ nucleoli phenotype percent effect” value is -15.9%. In addition, the “one-nucleolus phenotype percent effect” value in the data set on MCF10A [3] worked out at 10.3%.
Take “UGUAGUGUUUCCUACUUUAUGGA [hsa-miR-142-3p]”: the percent viability in the data set with MCF10A [1] is 82.8%. Also, in the data set with MCF10A [2], the “5+ nucleoli phenotype percent effect” value was -20%. Moreover, the “one-nucleolus phenotype percent effect” value in the data set with MCF10A [3] stood at 23.4%.
Turning to “UACUCCAGAGGGCGUCACUCAUG [hsa-miR-508-5p]”, the percent viability in the data set with MCF10A [1] is 60.6%. For the same sequence, in the data set on MCF10A [2], the “5+ nucleoli phenotype percent effect” value turned out to be 0.947%. The “one-nucleolus phenotype percent effect” value in the data set with MCF10A [3] amounted to 19.6%.
As to UCACUACCUGACAAUACAGU [hsa-miR-4999-3p], the percent viability in the data set with MCF10A [1] was 52.7%. In addition, the “5+ nucleoli phenotype percent effect” value with MCF10A [2] stood at 0.698%. For the same sequence, the “one-nucleolus phenotype percent effect” value in the data set with MCF10A [3] is -25.2%.
Consider GUGAGGACUCGGGAGGUGG [hsa-miR-1224-5p], for which, in the data set on MCF10A [1], the percent viability amounted to 53.3%. The “5+ nucleoli phenotype percent effect” value with MCF10A [2] is -12.6%. The “one-nucleolus phenotype percent effect” value in the data set on MCF10A [3] came out at 16.9%.
The corresponding values for “AAGCCCUUACCCCAAAAAGUAU [hsa-miR-129-1-3p]” are 54.9%, -37.4% and 23.6%.
On to UGCGUUUCUCCUCUUGAGCAG [hsa-miR-6854-3p], for which the percent viability with MCF10A [1] stood at 23.5%. Also, the “5+ nucleoli phenotype percent effect” value in the data set with MCF10A [2] is -12.2%. Besides, in the data set with MCF10A [3], the “one-nucleolus phenotype percent effect” value is 21.3%.
The corresponding values for “UUGGGAGGGAAGACAGCUGGAGA [hsa-miR-6780a-5p]” are 13.4%, -30.2% and 55%.
Taken in the same sequence, the figures for CUGGGAGGUGGAUGUUUACUUC [hsa-miR-30b-3p] were 12.9%, -27.8% and 39.4%.
Taken in the same sequence, the figures for “CAAGCCUCUCCUGCCCUUCCAG [hsa-miR-7109-3p]” were 51.1%, 31.1% and -12.1%.
Take “UGAGGGGCAGAGAGCGAGACUUU [hsa-miR-423-5p]”: the percent viability with MCF10A [1] amounted to 41.6%. Moreover, in the data set with MCF10A [2], the “5+ nucleoli phenotype percent effect” value is -10.7%. For the same sequence, the “one-nucleolus phenotype percent effect” value in the data set with MCF10A [3] was determined as 13.3%.
